From patent publication US20210301005A1 (Genentech, published 2021)
Substitutions are numbered along the chain they refer to. Like-named read-outs stand apart in the source and are kept apart here.

Legend:
[1] = target: T1, human TGFβ2, mature receptor-binding domain (human, UniProt P09858 303-414 (pig entry), The mature TGFβ2 is a disulfide-linked homodimer of this 112-residue chain. The 4A11 epitope spans both monomers (p-1207).); experiment: BIAcore T200
T1 construct: Peprotech; also called TGFb2
T1 sequence: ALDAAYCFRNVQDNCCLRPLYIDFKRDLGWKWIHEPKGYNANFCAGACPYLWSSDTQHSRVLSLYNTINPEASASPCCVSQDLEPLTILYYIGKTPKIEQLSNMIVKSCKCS

[2] = target: T2, human TGFβ3, mature dimeric form (human, UniProt P10600 301-412); experiment: BIAcore T200
T2 construct: Peprotech, expressed in E. coli; also called TGFb3
T2 sequence: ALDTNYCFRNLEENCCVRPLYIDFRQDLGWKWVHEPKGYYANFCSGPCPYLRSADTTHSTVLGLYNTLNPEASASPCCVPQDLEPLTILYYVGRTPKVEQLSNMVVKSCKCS

[3] = target: T1, human TGFβ2, mature receptor-binding …; experiment: cell-based or functional assay
[4] = target: T2, human TGFβ3, mature dimeric form; experiment: cell-based or functional assay
[5] = target: T3, human TGFβ1, mature receptor-binding domain (human, UniProt P01137 279-390); experiment: cell-based or functional assay
T3 sequence (P01137 279-390 limits assumed): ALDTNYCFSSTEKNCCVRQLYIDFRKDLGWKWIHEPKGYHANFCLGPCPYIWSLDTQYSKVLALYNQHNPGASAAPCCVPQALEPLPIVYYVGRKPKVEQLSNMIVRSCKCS

[6] = target: T1, human TGFβ2, mature receptor-binding …; experiment: BIAcore T200; remark: listed apart in the source
Protocol: (§1) For binding affinity determinations of all humanized 2A10 antibodies, Surface Plasmon Resonance (SPR) measurement with a BIAcore™-T200 instrument was used. Briefly, series S CM5 biosensor chip with protein A was first applied to capture each humanized 2A10 variant to achieve approximately 100 response units (RU) on each flow cell, following by injection of 3-fold serial dilutions of human TGFβ1, TGFβ2 or TGFβ3 (0.02 nM to 5 nM) in HBS-EP buffer (0.01M HEPES pH 7.4, 0.15M NaCl, 3 mM EDTA and 0.05% v/v surfactant P20) at 25° C. with a flow rate of 50 μl/min for kinetics measurement. Association rates (ko.) and dissociation rates (koff) were calculated using a simple one-to-one Langmuir binding model (BIAcore T200 evaluation software version 2.0) to determine the equilibrium dissociation constant (KD), which was calculated as the ratio koff/kₒₙ.

[7] = target: T2, human TGFβ3, mature dimeric form; experiment: BIAcore T200; remark: listed apart in the source
Protocol: as §1

[8] = target: T2, human TGFβ3, mature dimeric form; experiment: cell-based or functional assay; remark: listed apart in the source
[9] = target: T1, human TGFβ2, mature receptor-binding …; experiment: cell-based or functional assay; remark: listed apart in the source
[10] = target: T2, human TGFβ3, mature dimeric form; experiment: cell-based or functional assay; remark: listed apart in the source
[11] = target: T3, human TGFβ1, mature receptor-binding …; experiment: cell-based or functional assay; remark: listed apart in the source
[12] = target: T1, human TGFβ2, mature receptor-binding …; experiment: cell-based or functional assay; remark: listed apart in the source
[13] = target: T1, human TGFβ2, mature receptor-binding …; experiment: BIAcore T200; remark: listed apart in the source
[14] = target: T1, human TGFβ2, mature receptor-binding …; experiment: BIAcore T200; remark: listed apart in the source
Protocol: as §1
(§2) Binding affinity determinations of all humanized 4A11 antibodies were performed using SPR measurement with a BIAcore™-T200 instrument, as described above in Example 6 ([…]).

[15] = target: T2, human TGFβ3, mature dimeric form; experiment: BIAcore T200; remark: listed apart in the source
Protocol: as §1, §2

[16] = target: T1, human TGFβ2, mature receptor-binding …; experiment: cell-based or functional assay; remark: listed apart in the source
[17] = target: T2, human TGFβ3, mature dimeric form; experiment: cell-based or functional assay; remark: listed apart in the source
[18] = target: T3, human TGFβ1, mature receptor-binding …; experiment: cell-based or functional assay; remark: listed apart in the source
[19] = target: T1, human TGFβ2, mature receptor-binding …; experiment: cell-based or functional assay; remark: listed apart in the source
[20] = target: T2, human TGFβ3, mature dimeric form; experiment: cell-based or functional assay; remark: listed apart in the source
[21] = target: T3, human TGFβ1, mature receptor-binding …; experiment: cell-based or functional assay; remark: listed apart in the source

B1: h2A10.v1 (antibody, human IgG1, kappa, N297G, V domains shown)
VH: EVQLVESGGGLVQPGPSLRLSCTASGFDFNSYGMSWVRQAPGKGLELVADIVSKTYNYTTYYSDSVKDRFTISRDDSKSIVYLQMNSLKTEDTAVYYCTVAPGGSFDYWGQGTLVTVSS
VL: DIQLTQSPSSLSASVGDRVTITCRASQSVSISRFNLMHWYQHKPGKQPKLLIYRASNLASGIPSRFSGSGSGTDFTLTISSLQPEDFATYYCQHSRESPWTFGGGTKVEIKR
notes: also called humanized 2A10 version 1
binding result [1]: binds
binding result [2]: binds

B2: h2A10.v2.7 (antibody, human IgG1, kappa, N297G, V domains shown)
VH: B1 VH with V5L, P16G, T23A, D76N, I80T, K89R, T90A
VL: B1 VL
HEKBlue TGFβ blocking IC50 [3]: > 200 nM
HEKBlue TGFβ blocking IC50 [4]: 0.12 nM
HEKBlue TGFβ blocking IC50 [5]: > 200 nM
Kd [6]: 0.921 nM
Kd [7]: 0.0032 nM
fold loss of TGFβ3 blocking against h2A10.v2 [8]: > 10 fold

B3: h2A10.v2.5 (antibody, human IgG1, kappa, N297G, V domains shown)
VH: B1 VH with V5L, P16G, T23A, L47W, I80T, K89R, T90A
VL: B1 VL
HEKBlue TGFβ blocking IC50 [3]: > 200 nM
HEKBlue TGFβ blocking IC50 [4]: 27.4 nM
HEKBlue TGFβ blocking IC50 [5]: > 200 nM
Kd [6]: 2.82 nM
Kd [7]: 0.5 nM
fold loss of TGFβ3 blocking against h2A10.v2 [8]: > 10 fold
fold drop in TGFβ3 binding against h2A10.v2 [2]: 385 fold

B4: h6F12.v4 (antibody, human IgG1, kappa, N297G, V domains shown)
VH: EVQLQESGPGLVKPSETLSLTCTVSGFSLTTYNVHWVRQPPGKGLEWMGLIWNTGGTRYNSALKSRLTISKDTSKSQVSLKLSSVTAADTAVYYCARDPVPNKWHFDFWGPGTLVTVSS
VL: EIVMTQSPATLSVSPGERATLSCLASEDIYSNLAWYQQKPGQSPRLLIYDARSLQDGVPARFSGSESGPEYTLTISSLQSEDFAVYFCQQHHAYPFTFGQGTKVEIKR
HEKBlue TGFβ blocking IC50 [9]: 0.02 nM
HEKBlue TGFβ blocking IC50 [10]: > 200 nM
HEKBlue TGFβ blocking IC50 [11]: > 200 nM
fold drop in blocking against r6F12 [12]: 2.5 to 5 fold
Kd [13]: ≤ 0.0005 nM

B5: h4A11.v7.11 (antibody, human IgG1, kappa, N297G, V domains shown)
VH: EQQLQESGPGLVKPSETLSLTCTVTGFSLSSYTVNWVRQPAGKGLEWIGYISYGGSAYYASWANGRFTISVDSSKNQVSLKLSSVTAADTAVYFCARHMQVGGAPTGSMAAFDPWGPGTLVTVSS
VL: EAVLTQSPGTLSLSPGERATLSCQSSQSVYNNNYLSWFQQKPGQPPRLLIYGASTLTSGVPDRFSGSGSGTDFTLTISRLEPEDFAVYYCAGGYSGSSDKYAFGGGTKVEIKR
fold loss of blocking against h4A11.v7 [12]: > 2000 fold
fold loss of blocking against h4A11.v7 [8]: 118 fold
Kd [14]: 0.0401 nM
Kd [15]: 0.0214 nM
fold drop in binding against h4A11.v7 [1]: 6 fold
fold drop in binding against h4A11.v7 [2]: 2 fold
HEKBlue TGFβ blocking IC50 [16]: > 200 nM
HEKBlue TGFβ blocking IC50 [17]: 3.53 nM
HEKBlue TGFβ blocking IC50 [18]: > 200 nM

B6: h4A11.v7.13 (antibody, human IgG1, kappa, N297G, V domains shown)
VH: B5 VH with V71K, V78F
VL: B5 VL
Kd [14]: 0.0159 nM
Kd [15]: 0.0089 nM
fold drop in binding against h4A11.v7 [1]: 2.5 fold
HEKBlue TGFβ blocking IC50 [16]: 0.03 nM
HEKBlue TGFβ blocking IC50 [17]: 0.05 nM
HEKBlue TGFβ blocking IC50 [18]: > 200 nM

B7: h4A11.v7.5 (antibody, V domains shown)
VH: B5 VH with V71K
VL: EAVLTQSPGTLSLSPGERATLSCQSSQSVYNNNYLSWYQQKPGQPPRLLIYGASTLTSGVPDRFSGSGSGTDFTLTISRLEPEDFAVYYCAGGYSGSSDKYAFGGGTKVEIK
fold loss of blocking against h4A11.v7 [12]: ~2 fold
Kd [14]: 0.0092 nM
Kd [15]: 0.0093 nM
fold drop in binding against h4A11.v7 [1]: ~2 fold
HEKBlue TGFβ blocking IC50 [16]: 0.16 nM
HEKBlue TGFβ blocking IC50 [17]: 0.04 nM
HEKBlue TGFβ blocking IC50 [18]: > 200 nM

B8: h6F12.v1 (antibody, human IgG1, kappa, N297G, V domains shown)
VH: EVTLKESGPVLVKPTETLTLTCTVSGFSLTTYNVHWVRQPPGKALEWMGLIWNTGGTRYNSALKSRLTISKDTSKSQVVLTMTNMDPVDTATYYCARDPVPNKWHFDFWGPGTLVTVSS
VL: DIQMTQSPSTLSASVGDRVTITCLASEDIYSNLAWYQQKPGKSPKLLIYDARSLQDGVPSRFSGSESGPEYTLTISSLQPDDFATYFCQQHHAYPFTFGQGTKVEIKR
HEKBlue TGFβ blocking IC50 [9]: 0.02 nM
HEKBlue TGFβ blocking IC50 [10]: > 200 nM
HEKBlue TGFβ blocking IC50 [11]: > 200 nM
fold drop in blocking against r6F12 [12]: 2.5 to 5 fold
HEKBlue TGFβ blocking IC50 [19]: 0.02 nM
HEKBlue TGFβ blocking IC50 [20]: > 200 nM
HEKBlue TGFβ blocking IC50 [21]: > 200 nM
Kd [13]: ≤ 0.0005 nM

B9: h6F12.v2 (antibody, human IgG1, kappa, N297G, V domains shown)
VH: B4 VH
VL: B8 VL
HEKBlue TGFβ blocking IC50 [9]: 0.01 nM
HEKBlue TGFβ blocking IC50 [10]: > 200 nM
HEKBlue TGFβ blocking IC50 [11]: > 200 nM
fold drop in blocking against r6F12 [12]: 2.5 to 5 fold
Kd [13]: ≤ 0.0005 nM

B10: h6F12.v3 (antibody, human IgG1, kappa, N297G, V domains shown)
VH: B8 VH
VL: B4 VL
HEKBlue TGFβ blocking IC50 [9]: 0.005 nM
HEKBlue TGFβ blocking IC50 [10]: > 200 nM
HEKBlue TGFβ blocking IC50 [11]: > 200 nM
Kd [13]: ≤ 0.0005 nM
